Assay results as given in patent publication US11541107B2, “Peptides and T cells for use in immunotherapeutic treatment of various cancers” (Immatics Biotechnologies GmbH, priority 2015, dated 2023).

target: HLA-A*02 (Homo sapiens, UniProt P04439, D140Y/D185E/D98H/E176V/E277Q/G131W/G231S/I119V/I121R/I166T/I218V/L300P/N151K/N90K/P208A/P217A/Q86G/Q94H/R138H/R169H); test: MHC binding assay, UV-ligand exchange with beta2m ELISA, HLA-A*02; conditions: binding to HLA-A*02 ranged by peptide exchange yield (UV-ligand exchange, beta2m ELISA)
Excerpt: Candidate peptides for T cell based therapies according to the present invention were further tested for their MHC binding capacity (affinity). The individual peptide-MHC complexes were produced by UV-ligand exchange, where a UV-sensitive peptide is cleaved upon UV-irradiation, and exchanged with the peptide of interest as analyzed. Only peptide candidates that can effectively bind and stabilize the peptide-receptive MHC molecules prevent dissociation of the MHC complexes. To determine the yield of the exchange reaction, an ELISA was performed based on the detection of the light chain (ß2 m) of stabilized MHC complexes. The assay was performed as generally described in Rodenko et al. (Rodenko et al., 2006).
96 well MAXISorp plates (NUNC) were coated over night with 2 ug/ml streptavidin in PBS at room temperature, washed 4× and blocked for 1 h at 37° C. in 2% BSA containing blocking buffer. […] Peptide-MHC monomers of the UV-exchange reaction were diluted 100 fold in blocking buffer. Samples were incubated for 1 h at 37° C., washed four times, incubated with 2 ug/ml HRP conjugated anti-β2 m for 1h at 37° C., washed again and detected with TMB solution that is stopped with […]. Absorption was measured at 450 nm. Candidate peptides that show a high exchange yield (preferably higher than 50%, most preferred higher than 75%) are generally preferred for a generation and production of antibodies or fragments thereof, and/or T cell receptors or fragments thereof, as they show sufficient avidity to the MHC molecules and prevent dissociation of the MHC complexes.

Peptide exchange	Substance
+++ (50%-75% = +++)	49 (LLDESKLTL; listed as Homo sapiens) [compound 49]
++ (20%-49% = ++)	50 (EYALLYHTL; listed as Homo sapiens) [compound 50]
+++ (50%-75% = +++)	51 (LLLDGDFTL; listed as Homo sapiens) [compound 51]
+++ (50%-75% = +++)	52 (ELLSSIFFL; listed as Homo sapiens) [compound 52]
+++ (50%-75% = +++)	53 (SLLSHVIVA; listed as Homo sapiens) [compound 53]
+++ (50%-75% = +++)	54 (FINPKGNWLL; listed as Homo sapiens) [compound 54]
++ (20%-49% = ++)	55 (IASAIVNEL; listed as Homo sapiens) [compound 55]
++ (20%-49% = ++)	56 (KILDLTRVL; listed as Homo sapiens) [compound 56]
++ (20%-49% = ++)	57 (VLISSTVRL; listed as Homo sapiens) [compound 57]
++ (20%-49% = ++)	58 (ALDDSLTSL; listed as Homo sapiens) [compound 58]
+++ (50%-75% = +++)	59 (ALTKILAEL; listed as Homo sapiens) [compound 59]
++ (20%-49% = ++)	60 (FLIDTSASM; listed as Homo sapiens) [compound 60]
++ (20%-49% = ++)	61 (HLPDFVKQL; listed as Homo sapiens) [compound 61]
+++ (50%-75% = +++)	62 (SLFNQEVQI; listed as Homo sapiens) [compound 62]
+ (<20% = +)	63 (TLSSERDFAL; listed as Homo sapiens) [compound 63]
++ (20%-49% = ++)	64 (GLSSSSYEL; listed as Homo sapiens) [compound 64]
+++ (50%-75% = +++)	65 (KLDGICWQV; listed as Homo sapiens) [compound 65]

Peptide exchange	Substance
+++ (50%-75% = +++)	66 (FITDFYTTV; listed as Homo sapiens) [compound 66]
++ (20%-49% = ++)	67 (GVIETVTSL; listed as Homo sapiens) [compound 67]
+++ (50%-75% = +++)	69 (GIYDGILHSI; listed as Homo sapiens) [compound 69]
+++ (50%-75% = +++)	70 (GLFSQHFNL; listed as Homo sapiens) [compound 70]
+++ (50%-75% = +++)	71 (GLITVDIAL; listed as Homo sapiens) [compound 71]
+++ (50%-75% = +++)	72 (GMIGFQVLL; listed as Homo sapiens) [compound 72]
++ (20%-49% = ++)	74 (ILDETLENV; listed as Homo sapiens) [compound 74]
+++ (50%-75% = +++)	75 (ILDNVKNLL; listed as Homo sapiens) [compound 75]
+++ (50%-75% = +++)	76 (ILLDESNFNHFL; listed as Homo sapiens) [compound 76]
+++ (50%-75% = +++)	77 (IVLSTIASV; listed as Homo sapiens) [compound 77]
+++ (50%-75% = +++)	78 (LLWGHPRVA; listed as Homo sapiens) [compound 78]
++++ (>=75% = ++++)	79 (SLVPLQILL; listed as Homo sapiens) [compound 79]
+++ (50%-75% = +++)	80 (TLDEYLTYL; listed as Homo sapiens) [compound 80]
++ (20%-49% = ++)	81 (VLFLGKLLV; listed as Homo sapiens) [compound 81]
++ (20%-49% = ++)	82 (VLLRVLIL; listed as Homo sapiens) [compound 82]
+++ (50%-75% = +++)	83 (ELLEYLPQL; listed as Homo sapiens) [compound 83]
